Biological target: HLA-A*02:01
Experiment: IEDB peptide-MHC binding, purified MHC/competitive/radioactivity; ≥ and ≤ were set here for values at or beyond the usual limits of such assays
Details: source organism: Mycobacterium tuberculosis H37Rv

Row | Sequence | IC50
1 | ALLALTRAI | 0.42 µM
2 | AYGSFVRTV | 13 µM
3 | ELAAEPTEV | 1.8 µM
4 | GLWLSVAAV | 0.11 µM
5 | GSFVRTVSL | 59 µM
6 | HVYAHQAQT | 5.5 µM
7 | LTRAILIRV | 53 µM
8 | QAQTRHPAT | ≥ 250 µM
9 | RTVSLPVGA | 2.5 µM
10 | TEVGQDQYV | ≥ 250 µM

Reference: the Immune Epitope Database (IEDB)
